The record followed here is publication PMC8605356.

In test [1] the target is α-D-fructofuranosidase and difructose dianhydride I synthase/hydrolase from Bifidobacterium dentium (Bifidobacterium dentium JCM 1195). Kind of test: crystal structure; sitting drop vapor diffusion at 20 °C, 10 mg/ml αFFase1 in 5 mM Na acetate pH 6.0, reservoir 20% PEG 3350 and 0.2 M disodium tartrate; ligand-free and cocrystals with D-fructose or D-arabinose; hexamer in the asymmetric unit.

Test [2] shares this target. Nature of the test: SEC; size-exclusion chromatography of the purified protein; conditions of this analysis not told (the purification used Hiload 16/60 Superdex 200 pg in 25 mM Tris HCl pH 7.0, 300 mM NaCl).

As for “α-D-fructofuranosidase and difructose dianhydride I synthase/hydrolase from Bifidobacterium dentium (enzyme)”, the stoichiometry N in test [1] and in test [2] was 6 each time.
